From patent US20200164032A1 (WASHINGTON UNIVERSITY, published 2020)

Assays:
[1] = biological target: T1, murine CCL2 (mouse, UniProt P10148 24-148)
[2] = biological target: T1, murine CCL2; experiment: SPR, R17 on CM5 chip; t1/2
[3] = biological target: T2, murine CCL3 (mouse, UniProt P10855 24-92); experiment: SPR, R17 on CM5 chip; t1/2
T2 construct: also called mCCL3
T2 sequence: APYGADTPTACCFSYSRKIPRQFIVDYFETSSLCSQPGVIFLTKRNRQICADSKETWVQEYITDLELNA

[4] = biological target: T3, murine CCL4 (mouse, UniProt P14097 24-92); experiment: SPR, R17 on CM5 chip; t1/2
T3 construct: also called mCCL4
T3 sequence: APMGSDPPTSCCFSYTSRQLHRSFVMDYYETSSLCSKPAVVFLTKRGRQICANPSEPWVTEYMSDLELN

[5] = biological target: T4, murine CCL5 (mouse, UniProt P30882 24-91); experiment: SPR, R17 on CM5 chip; t1/2
T4 construct: also called mCCL5
T4 sequence (P30882 24-91 limits assumed): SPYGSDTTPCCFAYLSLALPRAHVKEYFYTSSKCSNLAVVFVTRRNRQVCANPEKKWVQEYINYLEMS

[6] = biological target: T5, human CCL5 (human, UniProt P13501 24-91); experiment: SPR, R17 on CM5 chip; t1/2
T5 construct: also called hCCL5
T5 sequence: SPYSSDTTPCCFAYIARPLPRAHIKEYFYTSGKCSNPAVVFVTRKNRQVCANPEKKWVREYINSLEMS

[7] = biological target: T6, murine CCL8 (mouse, UniProt Q9Z121 24-97); experiment: SPR, R17 on CM5 chip; t1/2
T6 construct: also called mCCL8
T6 sequence: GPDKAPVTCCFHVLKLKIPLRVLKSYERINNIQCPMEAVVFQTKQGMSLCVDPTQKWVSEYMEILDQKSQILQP

[8] = biological target: T7, murine CCL20 (mouse, UniProt O89093 28-97); experiment: SPR, R17 on CM5 chip; t1/2
T7 construct: also called mCCL20
T7 sequence: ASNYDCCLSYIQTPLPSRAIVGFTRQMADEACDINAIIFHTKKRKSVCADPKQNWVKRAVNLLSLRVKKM

[9] = biological target: T8, murine CCL24 (mouse, UniProt Q9JKC0 27-119); experiment: SPR, R17 on CM5 chip; t1/2
T8 construct: also called mCCL24
T8 sequence: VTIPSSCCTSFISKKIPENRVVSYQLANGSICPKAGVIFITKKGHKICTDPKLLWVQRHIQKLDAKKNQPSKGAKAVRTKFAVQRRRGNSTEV

[10] = biological target: T9, murine CCL12 (mouse, UniProt Q62401 23-104); experiment: SPR, R17 on CM5 chip; t1/2
T9 construct: also called mCCL12
T9 sequence: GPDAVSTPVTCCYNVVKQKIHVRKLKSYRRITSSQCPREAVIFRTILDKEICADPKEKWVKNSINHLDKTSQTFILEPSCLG

[11] = biological target: T10, murine XCL1 (lymphotactin) (mouse, UniProt P47993 22-114); experiment: SPR, R17 on CM5 chip; t1/2
T10 construct: also called mXCL1; lymphotactin (XCL1)
T10 sequence: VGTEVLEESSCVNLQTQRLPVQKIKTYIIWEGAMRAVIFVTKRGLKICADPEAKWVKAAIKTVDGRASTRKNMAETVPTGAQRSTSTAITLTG

[12] = biological target: T11, CCL9 (UniProt P51670 22-122); experiment: SPR, R17 on CM5 chip; t1/2
T11 sequence: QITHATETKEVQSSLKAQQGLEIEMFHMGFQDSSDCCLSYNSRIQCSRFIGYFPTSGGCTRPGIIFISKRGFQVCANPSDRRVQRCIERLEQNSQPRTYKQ

[13] = biological target: T12, human CCL2 (human, UniProt P13500 24-99); experiment: SPR saturation binding (KD,eq), R17 on CM5 chip
T12 construct: also called hCCL2
T12 sequence (P13500 24-99 limits assumed): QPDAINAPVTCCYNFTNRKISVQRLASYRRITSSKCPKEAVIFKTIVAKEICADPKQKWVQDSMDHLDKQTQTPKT

[14] = biological target: T13, human CCL3 (human, UniProt P10147 23-92); experiment: SPR saturation binding (KD,eq), R17 on CM5 chip
T13 construct: also called hCCL3
T13 sequence: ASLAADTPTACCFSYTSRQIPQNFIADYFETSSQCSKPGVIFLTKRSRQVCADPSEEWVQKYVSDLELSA

[15] = biological target: CCL2 (species not given); experiment: SPR, R17 variant on CM5 chip; column KDeq (nM)
[16] = biological target: CCL2 (species not given); experiment: SPR, R17 variant on CM5 chip; column KD (nM), kinetic
[17] = biological target: CCL3 (species not given); experiment: SPR, R17 variant on CM5 chip; column KDeq (nM); ka, kd, KD printed n/a
[18] = biological target: T1, murine CCL2; experiment: SPR, R17 on CM5 chip, chemokine injected; global 1:1 mass transport fit
[19] = biological target: T12, human CCL2; experiment: as above
[20] = biological target: T6, murine CCL8; experiment: as above
[21] = biological target: T7, murine CCL20; experiment: as above
[22] = biological target: T9, murine CCL12; experiment: as above
[23] = biological target: T11, CCL9; experiment: as above

T1 sequence (P10148 24-148 limits assumed): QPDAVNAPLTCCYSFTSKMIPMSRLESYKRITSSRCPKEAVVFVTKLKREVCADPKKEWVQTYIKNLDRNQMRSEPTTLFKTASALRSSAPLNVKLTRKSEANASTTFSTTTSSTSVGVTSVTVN

B1: R17 chemokine decoy receptor of Rodent herpesvirus Peru (RHVP), wild type, C-terminal 8-His fusion (receptor)
chain: GPVGEPVASEINEASKVSSRLLTQDILFRKDRQATISLPIKLPVEDIITQTCDKITYGPLKFLDLLEKETAVLPLSTDITCPACLGRAVLVGKWECPAHVAVNESDLTVFGPNKEEHVPQFVTVQQPSDGKMQRLFFAKFLGTEESLAVLRVPGPDGHLCIQEALIHFKELSGAGVCSLWKANDSREEGLEMKQVDCLETTVLENQTCIATTLSKKIYHRLYCGERLMTGGQVSTRVLLTALGFYKRQPYTFHRVPKGMVYVHLIDSGSEDYMEYSECEEVTPGRYEDKQISYTFYTDLFQTADGEPVLASVWGTSGLKDSAYESCAFVIPTKGRRKLVPRRIMSKCYPFRLTYHPSTMTVRLDVRVEKHHGATDQGFVFLKMESGTYSEGREYYLDRVLWGEDSSTNNVLQ
notes: not shown: C-terminal 8-His tag
- Kd [1]: 12 nM
- t1/2 [2]: 34.6 s
- t1/2 [3]: > 1000 s
- t1/2 [4]: > 1000 s
- t1/2 [5]: > 1000 s
- t1/2 [6]: > 1000 s
- t1/2 [7]: 6.9 s
- t1/2 [8]: 32.2 s
- t1/2 [9]: > 1000 s
- t1/2 [10]: 6.9 s
- t1/2 [11]: > 1000 s
- t1/2 [12]: 6.8 s
- Kd [13]: 12 nM
- Kd [14]: 1.4 nM
- Kd [15]: 10 nM
- Kd [16]: 6.7 nM
- Kd [17]: 0.4 nM
- koff [18]: 0.02 s⁻¹
- kon [18]: 2e+06 M⁻¹ s⁻¹
- koff [19]: 0.012 s⁻¹
- kon [19]: 1e+06 M⁻¹ s⁻¹
- koff [20]: 0.1 s⁻¹
- kon [20]: 1.3e+06 M⁻¹ s⁻¹
- koff [21]: 0.031 s⁻¹
- kon [21]: 6.5e+06 M⁻¹ s⁻¹
- koff [22]: 0.01 s⁻¹
- kon [22]: 8.9e+06 M⁻¹ s⁻¹
- koff [23]: 0.01 s⁻¹
- kon [23]: 3.6e+06 M⁻¹ s⁻¹
